{"source": "patent US20110229458A1", "about": "(published 2011)", "binders": {"B1": {"name": "DMS7148 (other)", "chain": "HGEGTFTSDVSSYLEGQAAKEFIADLVEGRGPSSDIQMTQSPSSLSASVGDRVTITCRASQWIGSQLSWYQQKPGKAPKLLIMWRSSLQSGVPSRFSGSGSGTDFTLTISSLQPEDFATYYCAQGAALPRTFGQGTKVEIKR"}, "B2": {"name": "DMS7161 (other)", "chain": "B1 chain with A126L, A127R, L128H, R130K"}}, "key": {"human GLP-1 receptor [1]": {"molecular_target": "T1, human GLP-1 receptor (human, UniProt P43220 24-463)", "T1 sequence (P43220 24-463)": "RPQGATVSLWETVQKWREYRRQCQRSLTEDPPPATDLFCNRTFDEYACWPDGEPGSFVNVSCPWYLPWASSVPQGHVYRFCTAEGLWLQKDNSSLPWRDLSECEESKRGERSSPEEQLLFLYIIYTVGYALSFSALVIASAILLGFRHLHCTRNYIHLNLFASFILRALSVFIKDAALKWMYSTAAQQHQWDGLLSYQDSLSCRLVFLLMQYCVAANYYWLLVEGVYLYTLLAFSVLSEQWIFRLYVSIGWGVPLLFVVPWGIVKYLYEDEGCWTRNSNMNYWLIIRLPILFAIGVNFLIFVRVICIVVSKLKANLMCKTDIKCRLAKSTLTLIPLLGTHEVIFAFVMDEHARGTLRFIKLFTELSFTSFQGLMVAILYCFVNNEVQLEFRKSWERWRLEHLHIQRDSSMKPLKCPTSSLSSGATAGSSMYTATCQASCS", "assay": "cell-based or functional assay"}, "human GLP-1 receptor [2]": {"molecular_target": "T1, human GLP-1 receptor", "assay": "cell-based or functional assay", "remark": "listed apart in the source"}}, "note": "Changes are numbered by the printed parent chain."}
{"binder": "B1", "values": [{"measurement": "pEC50 (6CRE luciferase reporter, CHO 6CRE GLP1R cells)", "setting": "human GLP-1 receptor [1]", "result": 9.45}]}
{"binder": "B2", "values": [{"measurement": "EC50 (M) (luciferase reporter, CHO 6CRE GLP1R cells); preparation DMS7161 A", "setting": "human GLP-1 receptor [2]", "result": "3.4e-09", "unit": "M"}, {"measurement": "EC50 (M) (luciferase reporter, CHO 6CRE GLP1R cells); preparation DMS7161 B", "setting": "human GLP-1 receptor [2]", "result": "1.6e-09", "unit": "M"}, {"measurement": "pEC50 (luciferase reporter, CHO 6CRE GLP1R cells); preparation DMS7161 A", "setting": "human GLP-1 receptor [2]", "result": 8.47}, {"measurement": "pEC50 (luciferase reporter, CHO 6CRE GLP1R cells); preparation DMS7161 B", "setting": "human GLP-1 receptor [2]", "result": 8.79}]}
